Common to all, as to assay: purified protein
Substrate in series [1]: NC(=O)c1ccc[n+]([C@@H]2O[C@H](COP(=O)(O)OP(=O)(O)OC[C@H]3O[C@@H](n4cnc5c(N)ncnc54)[C@H](O)[C@@H]3O)[C@@H](O)[C@H]2O)c1
As to conditions: pH 7.5.

Substrate in series [2]: NNC(=O)c1ccncc1
As to conditions: pH 7.5.

Substrate in series [3]: COc1cc(-c2ccc(N)c(OC)c2)ccc1N
As to conditions: pH 5.5.

B1: WT-KatG (Mt-KatG, Mycobacterium tuberculosis catalase-peroxidase) (Mycobacterium tuberculosis H37Rv) (protein)
chain: MPEQHPPITETTTGAASNGCPVVGHMKYPVEGGGNQDWWPNRLNLKVLHQNPAVADPMGAAFDYAAEVATIDVDALTRDIEEVMTTSQPWWPADYGHYGPLFIRMAWHAAGTYRIHDGRGGAGGGMQRFAPLNSWPDNASLDKARRLLWPVKKKYGKKLSWADLIVFAGNCALESMGFKTFGFGFGRVDQWEPDEVYWGKEATWLGDERYSGKRDLENPLAAVQMGLIYVNPEGPNGNPDPMAAAVDIRETFRRMAMNDVETAALIVGGHTFGKTHGAGPADLVGPEPEAAPLEQMGLGWKSSYGTGTGKDAITSGIEVVWTNTPTKWDNSFLEILYGYEWELTKSPAGAWQYTAKDGAGAGTIPDPFGGPGRSPTMLATDLSLRVDPIYERITRRWLEHPEELADEFAKAWYKLIHRDMGPVARYLGPLVPKQTLLWQDPVPAVSHDLVGEAEIASLKSQIRASGLTVSQLVSTAWAAASSFRGSDKRGGANGGRIRLQPQVGWEVNDPDGDLRKVIRTLEEIQESFNSAAPGNIKVSFADLVVLGGCAAIEKAAKAAGHNITVPFTPGRTDASQEQTDVESFAVLEPKADGFRNYLGKGNPLPAEYMLLDKANLLTLSAPEMTVLVGGLRVLGANYKRLPLGVFTEASESLTNDFFVNLLDMGITWEPSPADDGTYQGKDGSGKVKWTGSRVDLVFGSNSELRALVEVYGADDAQPKFVQDFVAAWDKVMNLDRFDVR
For B1, the Km in series [1] was 210 ± 40 µM; in series [2] it was 1900 ± 100 µM; in series [3] it was 2.1 ± 0.8 µM. The kcat/Km in series [1] came to 443 M⁻¹ s⁻¹; in series [2], 50.6 M⁻¹ s⁻¹; in series [3] it was 3.1e+06 M⁻¹ s⁻¹.

The values above are taken from paper PMC10839757.
